In the Human Domainome abundance scans (Beltran et al. 2025):
± gives the uncertainty stated by the source.

B1: Protein C-ets-1, residues 55 to 135; numbered along this chain, P14921 (parent)
chain: GFTKEQQRLGIPKDPRQWTETHVRDWVMWAVNEFSLKGVDFQKFCMNGAALCALGKDCFLELAPDFVGDILWEHLEILQKE

Variants of: B1
Experiment: abundance fitness (aPCA) (normalised: wild type 0, dead -1); higher = more abundant; growth selection in yeast, the domain comes from the species named
Conditions: Homo sapiens

Point of comparison: GFTKEQQRLGIPKDPRQWTETHVRDWVMWAVNEFSLKGVDFQKFCMNGAALCALGKDMFLELAPDFVGDILWEHLEILQKE, abundance fitness -0.009 ± 0.042. Against it:
- GFTKEQQRLGIPKDPRQWTETHVRDWVMWAVNEFSLKGVDFQKFCMNGAALCALGKDCDLELAPDFVGDILWEHLEILQKE — lower, -0.782 ± 0.078
- GFTKEQQRLGIPKDPRQWTETHVRDWVMWAVNEFSLKGVDFQKFCMNGAALCALGKDCLLELAPDFVGDILWEHLEILQKE — lower, -0.252 ± 0.032
- GFTKEQQRLGIPKDPRQWTETHVRDWVMWAVNEFSLKGVDFQKFCMNGAALCALGKDCYLELAPDFVGDILWEHLEILQKE — lower, -0.869 ± 0.17
- GFTKEQQRLGIPKDPRQWTETHVRDWVMWAVNEFSLKGVDFQKFCMNGAALCALGKDCQLELAPDFVGDILWEHLEILQKE — lower, -0.836 ± 0.08
- GFTKEQQRLGIPKDPRQWTETHVRDWVMWAVNEFSLKGVDFQKFCMNGAALCALGKDCRLELAPDFVGDILWEHLEILQKE — lower, -0.496 ± 0.038
- GFTKEQQRLGIPKDPRQWTETHVRDWVMWAVNEFSLKGVDFQKFCMNGAALCALGKDCALELAPDFVGDILWEHLEILQKE — lower, -0.928 ± 0.054
- GFTKEQQRLGIPKDPRQWTETHVRDWVMWAVNEFSLKGVDFQKFCMNGAALCALGKDCPLELAPDFVGDILWEHLEILQKE — lower, -0.984 ± 0.078
- GFTKEQQRLGIPKDPRQWTETHVRDWVMWAVNEFSLKGVDFQKFCMNGAALCALGKDCMLELAPDFVGDILWEHLEILQKE — lower, -0.239 ± 0.048
- GFTKEQQRLGIPKDPRQWTETHVRDWVMWAVNEFSLKGVDFQKFCMNGAALCALGKDCWLELAPDFVGDILWEHLEILQKE — lower, -0.318 ± 0.039
- GFTKEQQRLGIPKDPRQWTETHVRDWVMWAVNEFSLKGVDFQKFCMNGAALCALGKDCTLELAPDFVGDILWEHLEILQKE — lower, -0.963 ± 0.096
- GFTKEQQRLGIPKDPRQWTETHVRDWVMWAVNEFSLKGVDFQKFCMNGAALCALGKDCSLELAPDFVGDILWEHLEILQKE — lower, -0.918 ± 0.063
- GFTKEQQRLGIPKDPRQWTETHVRDWVMWAVNEFSLKGVDFQKFCMNGAALCALGKDCKLELAPDFVGDILWEHLEILQKE — lower, -0.882 ± 0.097
- GFTKEQQRLGIPKDPRQWTETHVRDWVMWAVNEFSLKGVDFQKFCMNGAALCALGKDCCLELAPDFVGDILWEHLEILQKE — lower, -0.65 ± 0.083
- GFTKEQQRLGIPKDPRQWTETHVRDWVMWAVNEFSLKGVDFQKFCMNGAALCALGKDCILELAPDFVGDILWEHLEILQKE — lower, -0.414 ± 0.064
- GFTKEQQRLGIPKDPRQWTETHVRDWVMWAVNEFSLKGVDFQKFCMNGAALCALGKDCNLELAPDFVGDILWEHLEILQKE — lower, -0.494 ± 0.084
- GFTKEQQRLGIPKDPRQWTETHVRDWVMWAVNEFSLKGVDFQKFCMNGAALCALGKDCELELAPDFVGDILWEHLEILQKE — lower, -0.944 ± 0.1
- GFTKEQQRLGIPKDPRQWTETHVRDWVMWAVNEFSLKGVDFQKFCMNGAALCALGKDCVLELAPDFVGDILWEHLEILQKE — lower, -0.467 ± 0.031
- GFTKEQQRLGIPKDPRQWTETHVRDWVMWAVNEFSLKGVDFQKFCMNGAALCALGKDCHLELAPDFVGDILWEHLEILQKE — lower, -0.953 ± 0.14
- GFTKEQQRLGIPKDPRQWTETHVRDWVMWAVNEFSLKGVDFQKFCMNGAALCALGKDCGLELAPDFVGDILWEHLEILQKE — lower, -0.95 ± 0.054
- GFTKEQQRLGIPKDPRQWTETHVRDWVMWAVNEFSLKGVDFQKFCMNGAALCALGKDCFDELAPDFVGDILWEHLEILQKE — lower, -0.23 ± 0.06
- GFTKEQQRLGIPKDPRQWTETHVRDWVMWAVNEFSLKGVDFQKFCMNGAALCALGKDCFPELAPDFVGDILWEHLEILQKE — lower, -0.628 ± 0.063
- GFTKEQQRLGIPKDPRQWTETHVRDWVMWAVNEFSLKGVDFQKFCMNGAALCALGKDCFYELAPDFVGDILWEHLEILQKE — within error, -0.058 ± 0.073
- GFTKEQQRLGIPKDPRQWTETHVRDWVMWAVNEFSLKGVDFQKFCMNGAALCALGKDCFTELAPDFVGDILWEHLEILQKE — within error, 0.001 ± 0.057
- GFTKEQQRLGIPKDPRQWTETHVRDWVMWAVNEFSLKGVDFQKFCMNGAALCALGKDCFWELAPDFVGDILWEHLEILQKE — lower, -0.43 ± 0.057
- GFTKEQQRLGIPKDPRQWTETHVRDWVMWAVNEFSLKGVDFQKFCMNGAALCALGKDCFRELAPDFVGDILWEHLEILQKE — within error, -0.042 ± 0.033
- GFTKEQQRLGIPKDPRQWTETHVRDWVMWAVNEFSLKGVDFQKFCMNGAALCALGKDCFCELAPDFVGDILWEHLEILQKE — within error, -0.091 ± 0.068
- GFTKEQQRLGIPKDPRQWTETHVRDWVMWAVNEFSLKGVDFQKFCMNGAALCALGKDCFEELAPDFVGDILWEHLEILQKE — lower, -0.113 ± 0.061
- GFTKEQQRLGIPKDPRQWTETHVRDWVMWAVNEFSLKGVDFQKFCMNGAALCALGKDCFFELAPDFVGDILWEHLEILQKE — within error, -0.087 ± 0.066
- GFTKEQQRLGIPKDPRQWTETHVRDWVMWAVNEFSLKGVDFQKFCMNGAALCALGKDCFHELAPDFVGDILWEHLEILQKE — within error, -0.052 ± 0.069
- GFTKEQQRLGIPKDPRQWTETHVRDWVMWAVNEFSLKGVDFQKFCMNGAALCALGKDCFGELAPDFVGDILWEHLEILQKE — lower, -0.1 ± 0.029
- GFTKEQQRLGIPKDPRQWTETHVRDWVMWAVNEFSLKGVDFQKFCMNGAALCALGKDCFKELAPDFVGDILWEHLEILQKE — within error, 0.043 ± 0.077
- GFTKEQQRLGIPKDPRQWTETHVRDWVMWAVNEFSLKGVDFQKFCMNGAALCALGKDCFNELAPDFVGDILWEHLEILQKE — within error, -0.117 ± 0.093
- GFTKEQQRLGIPKDPRQWTETHVRDWVMWAVNEFSLKGVDFQKFCMNGAALCALGKDCFMELAPDFVGDILWEHLEILQKE — within error, -0.067 ± 0.059
- GFTKEQQRLGIPKDPRQWTETHVRDWVMWAVNEFSLKGVDFQKFCMNGAALCALGKDCFAELAPDFVGDILWEHLEILQKE — the same, -0.009 ± 0.034
- GFTKEQQRLGIPKDPRQWTETHVRDWVMWAVNEFSLKGVDFQKFCMNGAALCALGKDCFQELAPDFVGDILWEHLEILQKE — within error, 0.027 ± 0.067
- GFTKEQQRLGIPKDPRQWTETHVRDWVMWAVNEFSLKGVDFQKFCMNGAALCALGKWCFLELAPDFVGDILWEHLEILQKE — lower, -0.464 ± 0.06
- GFTKEQQRLGIPKDPRQWTETHVRDWVMWAVNEFSLKGVDFQKFCMNGAALCALGKYCFLELAPDFVGDILWEHLEILQKE — lower, -0.326 ± 0.1
- GFTKEQQRLGIPKDPRQWTETHVRDWVMWAVNEFSLKGVDFQKFCMNGAALCALGKVCFLELAPDFVGDILWEHLEILQKE — lower, -0.097 ± 0.03
- GFTKEQQRLGIPKDPRQWTETHVRDWVMWAVNEFSLKGVDFQKFCMNGAALCALGKQCFLELAPDFVGDILWEHLEILQKE — within error, -0.073 ± 0.045
- GFTKEQQRLGIPKDPRQWTETHVRDWVMWAVNEFSLKGVDFQKFCMNGAALCALGKPCFLELAPDFVGDILWEHLEILQKE — lower, -0.109 ± 0.033
- GFTKEQQRLGIPKDPRQWTETHVRDWVMWAVNEFSLKGVDFQKFCMNGAALCALGKTCFLELAPDFVGDILWEHLEILQKE — within error, -0.058 ± 0.039
- GFTKEQQRLGIPKDPRQWTETHVRDWVMWAVNEFSLKGVDFQKFCMNGAALCALGKRCFLELAPDFVGDILWEHLEILQKE — within error, -0.063 ± 0.034
- GFTKEQQRLGIPKDPRQWTETHVRDWVMWAVNEFSLKGVDFQKFCMNGAALCALGKSCFLELAPDFVGDILWEHLEILQKE — within error, -0.027 ± 0.03
- GFTKEQQRLGIPKDPRQWTETHVRDWVMWAVNEFSLKGVDFQKFCMNGAALCALGKDLFLELAPDFVGDILWEHLEILQKE — within error, -0.026 ± 0.033
- GFTKEQQRLGIPKDPRQWTETHVRDWVMWAVNEFSLKGVDFQKFCMNGAALCALGKDFFLELAPDFVGDILWEHLEILQKE — within error, -0.096 ± 0.051
- GFTKEQQRLGIPKDPRQWTETHVRDWVMWAVNEFSLKGVDFQKFCMNGAALCALGKDSFLELAPDFVGDILWEHLEILQKE — within error, 0.035 ± 0.027
- GFTKEQQRLGIPKDPRQWTETHVRDWVMWAVNEFSLKGVDFQKFCMNGAALCALGKDAFLELAPDFVGDILWEHLEILQKE — within error, 0.049 ± 0.036
- GFTKEQQRLGIPKDPRQWTETHVRDWVMWAVNEFSLKGVDFQKFCMNGAALCALGKDQFLELAPDFVGDILWEHLEILQKE — within error, 0.045 ± 0.044
- GFTKEQQRLGIPKDPRQWTETHVRDWVMWAVNEFSLKGVDFQKFCMNGAALCALGKDYFLELAPDFVGDILWEHLEILQKE — within error, 0.008 ± 0.048
- GFTKEQQRLGIPKDPRQWTETHVRDWVMWAVNEFSLKGVDFQKFCMNGAALCALGKDGFLELAPDFVGDILWEHLEILQKE — within error, 0.049 ± 0.024
- GFTKEQQRLGIPKDPRQWTETHVRDWVMWAVNEFSLKGVDFQKFCMNGAALCALGKDTFLELAPDFVGDILWEHLEILQKE — within error, 0.016 ± 0.042
- GFTKEQQRLGIPKDPRQWTETHVRDWVMWAVNEFSLKGVDFQKFCMNGAALCALGKDVFLELAPDFVGDILWEHLEILQKE — within error, 0.018 ± 0.035
- GFTKEQQRLGIPKDPRQWTETHVRDWVMWAVNEFSLKGVDFQKFCMNGAALCALGKDRFLELAPDFVGDILWEHLEILQKE — within error, 0.023 ± 0.027
- GFTKEQQRLGIPKDPRQWTETHVRDWVMWAVNEFSLKGVDFQKFCMNGAALCALGKDNFLELAPDFVGDILWEHLEILQKE — within error, 0.033 ± 0.055
- GFTKEQQRLGIPKDPRQWTETHVRDWVMWAVNEFSLKGVDFQKFCMNGAALCALGKDEFLELAPDFVGDILWEHLEILQKE — within error, 0.05 ± 0.04
- GFTKEQQRLGIPKDPRQWTETHVRDWVMWAVNEFSLKGVDFQKFCMNGAALCALGKDHFLELAPDFVGDILWEHLEILQKE — within error, 0.039 ± 0.056
- GFTKEQQRLGIPKDPRQWTETHVRDWVMWAVNEFSLKGVDFQKFCMNGAALCALGKDDFLELAPDFVGDILWEHLEILQKE — within error, 0.056 ± 0.07
- GFTKEQQRLGIPKDPRQWTETHVRDWVMWAVNEFSLKGVDFQKFCMNGAALCALGKDIFLELAPDFVGDILWEHLEILQKE — within error, -0.094 ± 0.073
- GFTKEQQRLGIPKDPRQWTETHVRDWVMWAVNEFSLKGVDFQKFCMNGAALCALGKDKFLELAPDFVGDILWEHLEILQKE — within error, -0.007 ± 0.062
- GFTKEQQRLGIPKDPRQWTETHVRDWVMWAVNEFSLKGVDFQKFCMNGAALCALGKDWFLELAPDFVGDILWEHLEILQKE — lower, -0.101 ± 0.036
- GFTKEQQRLGIPKDPRQWTETHVRDWVMWAVNEFSLKGVDFQKFCMNGAALCALGKDCFLHLAPDFVGDILWEHLEILQKE — within error, -0.089 ± 0.11
- GFTKEQQRLGIPKDPRQWTETHVRDWVMWAVNEFSLKGVDFQKFCMNGAALCALGKDCFLKLAPDFVGDILWEHLEILQKE — within error, 0.066 ± 0.077
- GFTKEQQRLGIPKDPRQWTETHVRDWVMWAVNEFSLKGVDFQKFCMNGAALCALGKDCFLDLAPDFVGDILWEHLEILQKE — within error, -0.013 ± 0.05
- GFTKEQQRLGIPKDPRQWTETHVRDWVMWAVNEFSLKGVDFQKFCMNGAALCALGKDCFLFLAPDFVGDILWEHLEILQKE — lower, -0.772 ± 0.17
- GFTKEQQRLGIPKDPRQWTETHVRDWVMWAVNEFSLKGVDFQKFCMNGAALCALGKDCFLALAPDFVGDILWEHLEILQKE — within error, -0.012 ± 0.032
- GFTKEQQRLGIPKDPRQWTETHVRDWVMWAVNEFSLKGVDFQKFCMNGAALCALGKDCFLILAPDFVGDILWEHLEILQKE — lower, -0.685 ± 0.11
- GFTKEQQRLGIPKDPRQWTETHVRDWVMWAVNEFSLKGVDFQKFCMNGAALCALGKDCFLCLAPDFVGDILWEHLEILQKE — lower, -0.202 ± 0.083
